The values that follow are results of earlier work, collected in paper PMC4041481.

A word on the pKa: it is the negative logarithm of the acid dissociation constant.

This data set concerns the target His37 (UniProt position 37, IIGILHLILWI). The note with it: M2 tetramer assembled in a lipid bilayer.

A value given as a limit tells only on which side of the number the result lay.

Take “Matrix protein 2 (M2 proton channel) (Influenza A virus (strain not stated))”: the pKa is less than 5.0.
